Test results from FireProtDB (doi:10.1016/j.jmb.2009.05.011).
Values joined by “and” are separate entries in the source; they are usually repeats but may differ in a detail not shown here. Equal values may be shown once.

B1: Dihydrolipoyllysine-residue succinyltransferase component of 2-oxoglutarate dehydrogenase complex, P0AFG6 (parent)
chain: MSSVDILVPDLPESVADATVATWHKKPGDAVVRDEVLVEIETDKVVLEVPASADGILDAVLEDEGTTVTSRQILGRLREGNSAGKETSAKSEEKASTPAQRQQASLEEQNNDALSPAIRRLLAEHNLDASAIKGTGVGGRLTREDVEKHLAKAPAKESAPAAAAPAAQPALAARSEKRVPMTRLRKRVAERLLEAKNSTAMLTTFNEVNMKPIMDLRKQYGEAFEKRHGIRLGFMSFYVKAVVEALKRYPEVNASIDGDDVVYHNYFDVSMAVSTPRGLVTPVLRDVDTLGMADIEKKIKELAVKGRDGKLTVEDLTGGNFTITNGGVFGSLMSTPIINPPQSAILGMHAIKDRPMAVNGQVEILPMMYLALSYDHRLIDGRESVGFLVTIKELLEDPTRLLLDV

Variants of: B1
Conditions: Escherichia coli (strain K12), pH 7, structure 1W4H, whole UniProt chain shown
[1] = 10 °C, GdnHCl, CD, 3-[morpholino]propanesulfonic acid 50 mM, NaCl 200 mM
[2] = 10 °C, GdnHCl, Fluorescence, 3-[morpholino]propanesulfonic acid 50 mM, NaCl 200 mM
[3] = Thermal, CD, Potassium phosphate 50 mM, KCl 200 mM

MSSVDILVPDLPESVADATVATWHKKPGDAVVRDEVLVEIETDKVVLEVPASADGILDAVLEDEGTTVTSRQILGRLREGNSAGKETSAKSEEKASTPAQRQQASLEEQNNDALSPAARRLLAEHNLDASAIKGTGVGGRLTREDVEKHLAKAPAKESAPAAAAPAAQPALAARSEKRVPMTRLRKRVAERLLEAKNSTAMLTTFNEVNMKPIMDLRKQYGEAFEKRHGIRLGFMSFYVKAVVEALKRYPEVNASIDGDDVVYHNYFDVSMAVSTPRGLVTPVLRDVDTLGMADIEKKIKELAVKGRDGKLTVEDLTGGNFTITNGGVFGSLMSTPIINPPQSAILGMHAIKDRPMAVNGQVEILPMMYLALSYDHRLIDGRESVGFLVTIKELLEDPTRLLLDV [I118A]
ddG of mutation (higher = less stable) [1]: 1.24 kcal/mol
denaturant m value [1]: 0.65 kcal/mol/M
denaturant midpoint (higher = more stable) [1]: 2.09 M
unfolding free energy [1]: 1.36 kcal/mol
denaturant m value [2]: 0.46 kcal/mol/M and 0.2 kcal/mol/M
unfolding free energy [2]: 1.18 kcal/mol

MSSVDILVPDLPESVADATVATWHKKPGDAVVRDEVLVEIETDKVVLEVPASADGILDAVLEDEGTTVTSRQILGRLREGNSAGKETSAKSEEKASTPAQRQQASLEEQNNDALSPAIRRALAEHNLDASAIKGTGVGGRLTREDVEKHLAKAPAKESAPAAAAPAAQPALAARSEKRVPMTRLRKRVAERLLEAKNSTAMLTTFNEVNMKPIMDLRKQYGEAFEKRHGIRLGFMSFYVKAVVEALKRYPEVNASIDGDDVVYHNYFDVSMAVSTPRGLVTPVLRDVDTLGMADIEKKIKELAVKGRDGKLTVEDLTGGNFTITNGGVFGSLMSTPIINPPQSAILGMHAIKDRPMAVNGQVEILPMMYLALSYDHRLIDGRESVGFLVTIKELLEDPTRLLLDV [L121A]
ddG of mutation (higher = less stable) [1]: 1.6 kcal/mol
denaturant m value [1]: 0.64 kcal/mol/M
denaturant midpoint (higher = more stable) [1]: 1.63 M
unfolding free energy [1]: 1.04 kcal/mol
denaturant m value [2]: 0.46 kcal/mol/M and 0.16 kcal/mol/M
unfolding free energy [2]: 0.9 kcal/mol
Tm [3]: 32.2 °C
ddG of mutation (higher = less stable) [3]: 1.67 kcal/mol
unfolding enthalpy (van 't Hoff) [3]: 16 kcal/mol

MSSVDILVPDLPESVADATVATWHKKPGDAVVRDEVLVEIETDKVVLEVPASADGILDAVLEDEGTTVTSRQILGRLREGNSAGKETSAKSEEKASTPAQRQQASLEEQNNDAASPAIRRLLAEHNLDASAIKGTGVGGRLTREDVEKHLAKAPAKESAPAAAAPAAQPALAARSEKRVPMTRLRKRVAERLLEAKNSTAMLTTFNEVNMKPIMDLRKQYGEAFEKRHGIRLGFMSFYVKAVVEALKRYPEVNASIDGDDVVYHNYFDVSMAVSTPRGLVTPVLRDVDTLGMADIEKKIKELAVKGRDGKLTVEDLTGGNFTITNGGVFGSLMSTPIINPPQSAILGMHAIKDRPMAVNGQVEILPMMYLALSYDHRLIDGRESVGFLVTIKELLEDPTRLLLDV [L114A]
ddG of mutation (higher = less stable) [1]: 0.9 kcal/mol
denaturant m value [1]: 0.71 kcal/mol/M
denaturant midpoint (higher = more stable) [1]: 2.6 M
unfolding free energy [1]: 1.85 kcal/mol
denaturant m value [2]: 0.5 kcal/mol/M and 0.18 kcal/mol/M
unfolding free energy [2]: 1.7 kcal/mol
Tm [3]: 41.9 °C
ddG of mutation (higher = less stable) [3]: 0.94 kcal/mol
unfolding enthalpy (van 't Hoff) [3]: 20 kcal/mol

MSSVDILVPDLPESVADATVATWHKKPGDAVVRDEVLVEIETDKVVLEVPASADGILDAVLEDEGTTVTSRQILGRLREGNSAGKETSAKSEEKASTPAQRQQASLEEQNNDALGPAIRRLLAEHNLDASAIKGTGVGGRLTREDVEKHLAKAPAKESAPAAAAPAAQPALAARSEKRVPMTRLRKRVAERLLEAKNSTAMLTTFNEVNMKPIMDLRKQYGEAFEKRHGIRLGFMSFYVKAVVEALKRYPEVNASIDGDDVVYHNYFDVSMAVSTPRGLVTPVLRDVDTLGMADIEKKIKELAVKGRDGKLTVEDLTGGNFTITNGGVFGSLMSTPIINPPQSAILGMHAIKDRPMAVNGQVEILPMMYLALSYDHRLIDGRESVGFLVTIKELLEDPTRLLLDV [S115G]
ddG of mutation (higher = less stable) [1]: 0.57 kcal/mol
denaturant m value [1]: 0.7 kcal/mol/M
denaturant midpoint (higher = more stable) [1]: 3.05 M
unfolding free energy [1]: 2.14 kcal/mol
denaturant m value [2]: 0.21 kcal/mol/M
unfolding free energy [2]: 2.31 kcal/mol
Tm [3]: 53.6 °C
ddG of mutation (higher = less stable) [3]: 0.47 kcal/mol
unfolding enthalpy (van 't Hoff) [3]: 21 kcal/mol

MSSVDILVPDLPESVADATVATWHKKPGDAVVRDEVLVEIETDKVVLEVPASADGILDAVLEDEGTTVTSRQILGRLREGNSAGKETSAKSEEKASTPAQRQQASLEEQNNDALSPAIRRLLGEHNLDASAIKGTGVGGRLTREDVEKHLAKAPAKESAPAAAAPAAQPALAARSEKRVPMTRLRKRVAERLLEAKNSTAMLTTFNEVNMKPIMDLRKQYGEAFEKRHGIRLGFMSFYVKAVVEALKRYPEVNASIDGDDVVYHNYFDVSMAVSTPRGLVTPVLRDVDTLGMADIEKKIKELAVKGRDGKLTVEDLTGGNFTITNGGVFGSLMSTPIINPPQSAILGMHAIKDRPMAVNGQVEILPMMYLALSYDHRLIDGRESVGFLVTIKELLEDPTRLLLDV [A123G]
ddG of mutation (higher = less stable) [1]: 0.93 kcal/mol
denaturant m value [1]: 0.72 kcal/mol/M
denaturant midpoint (higher = more stable) [1]: 2.55 M
unfolding free energy [1]: 1.84 kcal/mol
denaturant m value [2]: 0.42 kcal/mol/M and 0.23 kcal/mol/M
unfolding free energy [2]: 1.81 kcal/mol
Tm [3]: 40.8 °C
ddG of mutation (higher = less stable) [3]: 1.02 kcal/mol
unfolding enthalpy (van 't Hoff) [3]: 20 kcal/mol
